The values that follow come from the supplement of paper PMC5998384.

Data set [1] concerns HeLa Kyoto. The experiment in a line: solubility in G1/S (NP-40 vs SDS abundance) (log2 ratio); higher = more soluble. Particulars: cell cycle stage: G1/S.
For data set [2], the system named is HeLa Kyoto. In words: melting temperature (median over replicates), in situ; higher = more thermally stable.
In data set [3] the test system is HeLa Kyoto. The experiment in a line: solubility change mitosis vs G1/S (difference of NP-40 vs SDS log2 ratios) (log2 ratio difference); higher = more soluble in mitosis.
The subject of data set [4] is HeLa Kyoto. The experiment in a line: thermal stability score vs G1/S (z-score of summed log2 fold changes over temperatures); higher = more thermally stable than in G1/S.
Where [5] appears, read: cell cycle stage: early G1 (4.5 h after nocodazole release).
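Wherever melting temperature (median over replicates), in situ is given: HeLa Kyoto cells synchronized by double thymidine or nocodazole block, proteins quantified by TMT10plex mass spectrometry, three independent biological replicates.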
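Wherever solubility change mitosis vs G1/S (difference of NP-40 vs SDS log2 ratios) is given: synchronized HeLa Kyoto cells (double thymidine block for G1/S, nocodazole release for mitosis), protein amounts in NP-40 versus SDS lysates quantified by mass spectrometry, three biological replicates.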
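Wherever solubility in G1/S (NP-40 vs SDS abundance) is given: HeLa Kyoto cells arrested at G1/S by double thymidine block, proteins quantified by TMT10plex mass spectrometry in mild NP-40 versus SDS extracts, three biological replicates.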
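Wherever thermal stability score vs G1/S (z-score of summed log2 fold changes over temperatures) is given: synchronized HeLa Kyoto cells, proteins quantified by TMT10plex mass spectrometry, three biological replicates, mitosis taken 0.5 h after nocodazole release, G1/S directly after double thymidine block.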

Turning to “MAKRSRGPGRRCLLALVLFCAWGTLAVVAQKPGAGCPSRCLCFRTTVRCMHLLLEAVPAVAPQTSILDLRFNRIREIQPGAFRRLRNLNTLLLNNNQIKRIPSGAFEDLENLKYLYLYKNEIQSIDRQAFKGLASLEQLYLHFNQIETLDPDSFQHLPKLERLFLHNNRITHLVPGTFNHLESMKRLRLDSNTLHCDCEILWLADLLKTYAESGNAQAAAICEYPRRIQGRSVATITPEELNCERPRITSEPQDADVTSGNTVYFTCRAEGNPKPEIIWLRNNNELSMKTDSRLNLLDDGTLMIQNTQETDQGIYQCMAKNVAGEVKTQEVTLRYFGSPARPTFVIQPQNTEVLVGESVTLECSATGHPPPRISWTRGDRTPLPVDPRVNITPSGGLYIQNVVQGDSGEYACSATNNIDSVHATAFIIVQALPQFTVTPQDRVVIEGQTVDFQCEAKGNPPPVIAWTKGGSQLSVDRRHLVLSSGTLRISGVALHDQGQYECQAVNIIGSQKVVAHLTVQPRVTPVFASIPSDTTVEVGANVQLPCSSQGEPEPAITWNKDGVQVTESGKFHISPEGFLTINDVGPADAGRYECVARNTIGSASVSMVLSVNVPDVSRNGDPFVATSIVEAIATVDRAINSTRTHLFDSRPRSPNDLLALFRYPRDPYTVEQARAGEIFERTLQLIQEHVQHGLMVDLNGTSYHYNDLVSPQYLNLIANLSGCTAHRRVNNCSDMCFHQKYRTHDGTCNNLQHPMWGASLTAFERLLKSVYENGFNTPRGINPHRLYNGHALPMPRLVSTTLIGTETVTPDEQFTHMLMQWGQFLDHDLDSTVVALSQARFSDGQHCSNVCSNDPPCFSVMIPPNDSRARSGARCMFFVRSSPVCGSGMTSLLMNSVYPREQINQLTSYIDASNVYGSTEHEARSIRDLASHRGLLRQGIVQRSGKPLLPFATGPPTECMRDENESPIPCFLAGDHRANEQLGLTSMHTLWFREHNRIATELLKLNPHWDGDTIYYETRKIVGAEIQHITYQHWLPKILGEVGMRTLGEYHGYDPGINAGIFNAFATAAFRFGHTLVNPLLYRLDENFQPIAQDHLPLHKAFFSPFRIVNEGGIDPLLRGLFGVAGKMRVPSQLLNTELTERLFSMAHTVALDLAAINIQRGRDHGIPPYHDYRVYCNLSAAHTFEDLKNEIKNPEIREKLKRLYGSTLNIDLFPALVVEDLVPGSRLGPTLMCLLSTQFKRLRDGDRLWYENPGVFSPAQLTQIKQTSLARILCDNADNITRVQSDVFRVAEFPHGYGSCDEIPRVDLRVWQDCCEDCRTRGQFNAFSYHFRGRRSLEFSYQEDKPTKKTRPRKIPSVGRQGEHLSNSTSAFSTRSDASGTNDFREFVLEMQKTITDLRTQIKKLESRLSTTECVDAGGESHANNTKWKKDACTICECKDGQVTCFVEACPPATCAVPVNIPGACCPVCLQKRAEEKP [PXDN]”, in the data set with HeLa Kyoto [1], the “solubility in G1/S (log2)” value is -0.0223. For the same sequence, the melting temperature stood at 54 °C with HeLa Kyoto [2] (cell cycle stage: G1/S) and 54.5 °C in the data set with HeLa Kyoto [2] (cell cycle stage: mitosis). In addition, the “solubility change mitosis (log2)” value in the data set with HeLa Kyoto [3] was -0.103. The thermal stability score came to 3.4 in the data set on HeLa Kyoto [4] (setting [5]) and 3.61 with HeLa Kyoto [4] (cell cycle stage: mitosis).

With “MAKTVAYFYDPDVGNFHYGAGHPMKPHRLALTHSLVLHYGLYKKMIVFKPYQASQHDMCRFHSEDYIDFLQRVSPTNMQGFTKSLNAFNVGDDCPVFPGLFEFCSRYTGASLQGATQLNNKICDIAINWAGGLHHAKKFEASGFCYVNDIVIGILELLKYHPRVLYIDIDIHHGDGVQEAFYLTDRVMTVSFHKYGNYFFPGTGDMYEVGAESGRYYCLNVPLRDGIDDQSYKHLFQPVINQVVDFYQPTCIVLQCGADSLGCDRLGCFNLSIRGHGECVEYVKSFNIPLLVLGGGGYTVRNVARCWTYETSLLVEEAISEELPYSEYFEYFAPDFTLHPDVSTRIENQNSRQYLDQIRQTIFENLKMLNHAPSVQIHDVPADLLTYDRTDEADAEERGPEENYSRPEAPNEFYDGDHDNDKESDVEI [HDAC3]”, in the data set on HeLa Kyoto [1], the “solubility in G1/S (log2)” value is -0.055. For the same sequence, the melting temperature in the data set on HeLa Kyoto [2] (cell cycle stage: mitosis) was found to be 52.6 °C. For the same sequence, the “solubility change mitosis (log2)” value in the data set with HeLa Kyoto [3] was -0.161. The thermal stability score stood at 1.43 in the data set with HeLa Kyoto [4] (setting [5]) and 1.96 with HeLa Kyoto [4] (cell cycle stage: mitosis).

Regarding “MAKVSELYDVTWEEMRDKMRKWREENSRNSEQIVEVGEELINEYASKLGDDIWIIYEQVMIAALDYGRDDLALFCLQELRRQFPGSHRVKRLTGMRFEAMERYDDAIQLYDRILQEDPTNTAARKRKIAIRKAQGKNVEAIRELNEYLEQFVGDQEAWHELAELYINEHDYAKAAFCLEELMMTNPHNHLYCQQYAEVKYTQGGLENLELSRKYFAQALKLNNRNMRALFGLYMSASHIASNPKASAKTKKDNMKYASWAASQINRAYQFAGRSKKETKYSLKAVEDMLETLQITQS [EMC2]”, in the data set with HeLa Kyoto [1], the “solubility in G1/S (log2)” value worked out at 0.188. Besides, the melting temperature in the data set with HeLa Kyoto [2] (cell cycle stage: G1/S) was 53.8 °C; with HeLa Kyoto [2] (cell cycle stage: mitosis), 53.9 °C. Also, the “solubility change mitosis (log2)” value in the data set on HeLa Kyoto [3] was 0.0699. The thermal stability score was -1.21 with HeLa Kyoto [4] (setting [5]) and -1.88 in the data set on HeLa Kyoto [4] (cell cycle stage: mitosis).

For “MALFAVFQTTFFLTLLSLRTYQSEVLAERLPLTPVSLKVSTNSTRQSLHLQWTVHNLPYHQELKMVFQIQISRIETSNVIWVGNYSTTVKWNQVLHWSWESELPLECATHFVRIKSLVDDAKFPEPNFWSNWSSWEEVSVQDSTGQDILFVFPKDKLVEEGTNVTICYVSRNIQNNVSCYLEGKQIHGEQLDPHVTAFNLNSVPFIRNKGTNIYCEASQGNVSEGMKGIVLFVSKVLEEPKDFSCETEDFKTLHCTWDPGTDTALGWSKQPSQSYTLFESFSGEKKLCTHKNWCNWQITQDSQETYNFTLIAENYLRKRSVNILFNLTHRVYLMNPFSVNFENVNATNAIMTWKVHSIRNNFTYLCQIELHGEGKMMQYNVSIKVNGEYFLSELEPATEYMARVRCADASHFWKWSEWSGQNFTTLEAAPSEAPDVWRIVSLEPGNHTVTLFWKPLSKLHANGKILFYNVVVENLDKPSSSELHSIPAPANSTKLILDRCSYQICVIANNSVGASPASVIVISADPENKEVEEERIAGTEGGFSLSWKPQPGDVIGYVVDWCDHTQDVLGDFQWKNVGPNTTSTVISTDAFRPGVRYDFRIYGLSTKRIACLLEKKTGYSQELAPSDNPHVLVDTLTSHSFTLSWKDYSTESQPGFIQGYHVYLKSKARQCHPRFEKAVLSDGSECCKYKIDNPEEKALIVDNLKPESFYEFFITPFTSAGEGPSATFTKVTTPDEHSSMLIHILLPMVFCVLLIMVMCYLKSQWIKETCYPDIPDPYKSSILSLIKFKENPHLIIMNVSDCIPDAIEVVSKPEGTKIQFLGTRKSLTETELTKPNYLYLLPTEKNHSGPGPCICFENLTYNQAASDSGSCGHVPVSPKAPSMLGLMTSPENVLKALEKNYMNSLGEIPAGETSLNYVSQLASPMFGDKDSLPTNPVEAPHCSEYKMQMAVSLRLALPPPTENSSLSSITLLDPGEHYC [OSMR]”, in the data set on HeLa Kyoto [1], the “solubility in G1/S (log2)” value was -0.0468. Also, the results for the melting temperature in the data set with HeLa Kyoto [2] (cell cycle stage: G1/S) and in the data set on HeLa Kyoto [2] (cell cycle stage: mitosis) were 50.9 °C and 51.1 °C, respectively. The “solubility change mitosis (log2)” value in the data set on HeLa Kyoto [3] was -0.0968. Moreover, the thermal stability score in the data set on HeLa Kyoto [4] (setting [5]) is 0.598; with HeLa Kyoto [4] (cell cycle stage: mitosis) it was -0.083.

In the case of “MALHVPKAPGFAQMLKEGAKHFSGLEEAVYRNIQACKELAQTTRTAYGPNGMNKMVINHLEKLFVTNDAATILRELEVQHPAAKMIVMASHMQEQEVGDGTNFVLVFAGALLELAEELLRIGLSVSEVIEGYEIACRKAHEILPNLVCCSAKNLRDIDEVSSLLRTSIMSKQYGNEVFLAKLIAQACVSIFPDSGHFNVDNIRVCKILGSGISSSSVLHGMVFKKETEGDVTSVKDAKIAVYSCPFDGMITETKGTVLIKTAEELMNFSKGEENLMDAQVKAIADTGANVVVTGGKVADMALHYANKYNIMLVRLNSKWDLRRLCKTVGATALPRLTPPVLEEMGHCDSVYLSEVGDTQVVVFKHEKEDGAISTIVLRGSTDNLMDDIERAVDDGVNTFKVLTRDKRLVPGGGATEIELAKQITSYGETCPGLEQYAIKKFAEAFEAIPRALAENSGVKANEVISKLYAVHQEGNKNVGLDIEAEVPAVKDMLEAGILDTYLGKYWAIKLATNAAVTVLRVDQIIMAKPAGGPKPPSGKKDWDDDQND [CCT8]”, the “solubility in G1/S (log2)” value with HeLa Kyoto [1] came to 0.0969. Also, the results for the melting temperature with HeLa Kyoto [2] (cell cycle stage: G1/S) and in the data set with HeLa Kyoto [2] (cell cycle stage: mitosis) were 54.2 °C and 53.9 °C, respectively. For the same sequence, in the data set with HeLa Kyoto [3], the “solubility change mitosis (log2)” value is -0.0769. In addition, the thermal stability score in the data set with HeLa Kyoto [4] (setting [5]) was -0.228; in the data set with HeLa Kyoto [4] (cell cycle stage: mitosis) it was -1.4.

For the sequence “MALKVATVAGSAAKAVLGPALLCRPWEVLGAHEVPSRNIFSEQTIPPSAKYGGRHTVTMIPGDGIGPELMLHVKSVFRHACVPVDFEEVHVSSNADEEDIRNAIMAIRRNRVALKGNIETNHNLPPSHKSRNNILRTSLDLYANVIHCKSLPGVVTRHKDIDILIVRENTEGEYSSLEHESVAGVVESLKIITKAKSLRIAEYAFKLAQESGRKKVTAVHKANIMKLGDGLFLQCCREVAARYPQITFENMIVDNTTMQLVSRPQQFDVMVMPNLYGNIVNNVCAGLVGGPGLVAGANYGHVYAVFETATRNTGKSIANKNIANPTATLLASCMMLDHLKLHSYATSIRKAVLASMDNENMHTPDIGGQGTTSEAIQDVIRHIRVINGRAVEA [IDH3G]”, the “solubility in G1/S (log2)” value in the data set on HeLa Kyoto [1] was determined as 0.253. Further, the values for the melting temperature with HeLa Kyoto [2] (cell cycle stage: G1/S) and in the data set on HeLa Kyoto [2] (cell cycle stage: mitosis) were 54.5 °C and 54 °C, respectively. For the same sequence, the “solubility change mitosis (log2)” value in the data set on HeLa Kyoto [3] is -0.0967. The thermal stability score was -0.804 in the data set with HeLa Kyoto [4] (setting [5]) and -0.821 with HeLa Kyoto [4] (cell cycle stage: mitosis).

For the sequence “MALLFARSLRLCRWGAKRLGVASTEAQRGVSFKLEEKTAHSSLALFRDDTGVKYGLVGLEPTKVALNVERFREWAVVLADTAVTSGRHYWEVTVKRSQQFRIGVADVDMSRDSCIGVDDRSWVFTYAQRKWYTMLANEKAPVEGIGQPEKVGLLLEYEAQKLSLVDVSQVSVVHTLQTDFRGPVVPAFALWDGELLTHSGLEVPEGL [SPRYD4]”, the “solubility in G1/S (log2)” value with HeLa Kyoto [1] was -0.0415. The results for the melting temperature in the data set with HeLa Kyoto [2] (cell cycle stage: G1/S) and in the data set with HeLa Kyoto [2] (cell cycle stage: mitosis) were 53.9 °C and 54.8 °C, respectively. Further, the “solubility change mitosis (log2)” value with HeLa Kyoto [3] was -0.14. Also, the figures for the thermal stability score in the data set with HeLa Kyoto [4] (setting [5]) and in the data set on HeLa Kyoto [4] (cell cycle stage: mitosis) were -1.47 and -3.25, respectively.
